Data taken from patent US6380373B1, “Steroid receptor coactivator compositions and methods of use” (Baylor College of Medicine, priority 1995, dated 2002).

What was measured:
Assay type in all cases: cell-based
RXR = target: T1, RXR (Mus musculus, UniProt P28704); test: CAT reporter assay RXR/DR1-tk-CAT in HeLa cells; conditions: 3 μg SRC-1, 9-cis retinoic acid 2×10^−8 M
T1 construct: expressed in transfected cells; host or cells: HeLa
T1 sequence (P28704 1-520): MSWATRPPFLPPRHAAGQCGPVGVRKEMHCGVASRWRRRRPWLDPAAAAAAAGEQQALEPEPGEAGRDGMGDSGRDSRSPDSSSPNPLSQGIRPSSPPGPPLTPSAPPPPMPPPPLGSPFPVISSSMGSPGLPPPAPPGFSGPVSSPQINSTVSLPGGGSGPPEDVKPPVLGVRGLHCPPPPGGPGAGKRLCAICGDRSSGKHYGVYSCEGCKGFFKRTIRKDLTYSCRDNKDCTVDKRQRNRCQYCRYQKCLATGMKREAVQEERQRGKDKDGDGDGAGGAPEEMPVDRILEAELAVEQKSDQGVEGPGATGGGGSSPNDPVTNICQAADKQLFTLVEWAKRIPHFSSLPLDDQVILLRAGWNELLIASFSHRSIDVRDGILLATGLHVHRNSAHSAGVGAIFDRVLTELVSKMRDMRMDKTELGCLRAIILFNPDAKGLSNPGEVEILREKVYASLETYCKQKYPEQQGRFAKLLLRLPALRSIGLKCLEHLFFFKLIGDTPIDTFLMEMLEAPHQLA
Protocol: (§1) Biol. 13, 6501-6508), Sp1 and Sp1-tk-CAT (Courey, A. J. and Tjian, R. (1988), Cell 55, 887-898), CREB and CRE-tk-CAT (Chrivia, J. C. et al., (1993), Nature 365, 855) and GAL4VP16 and 17mer-tk-CAT (Baniahmad, A. et al., (1992), EMBO J. 11, 1015-1023) have been previously described and the above references are incorporated herein by reference in their entirety, including any drawings.
(§2) Lipofectin (GibcoBRL) was selected for transfection of Hela cells.
(§3) HeLa cells were cotransfected with 0.5 μg of cDNAs encoding various steroid receptors indicated and 5 μg of their cognates HREs containing reporters, including PR/PRE2-TATA-CAT, ER/ERE2-TATA-CAT, GR/PRE2-TATA-CAT, TR-/DR4-tk-CAT and RXR/DR1-tk-CAT, along with 3 μg of SRC-1 or empty expression vector. Cells were then treated with their corresponding ligands (PR:R5020, ER:estradiol, GR:dexamethasone, TR:Triac, RXR:9-cis retinoic acid) at a concentration of 2×10^−8M. The CAT activity of the reporter was determined using 14 μg of protein extract.

GR = target: T2, GR (Homo sapiens, UniProt P04150); test: CAT reporter assay GR/PRE2-TATA-CAT in HeLa cells; conditions: 3 μg SRC-1, dexamethasone 2×10^−8 M
T2 construct: expressed in transfected cells; host or cells: HeLa
T2 sequence (P04150 1-777): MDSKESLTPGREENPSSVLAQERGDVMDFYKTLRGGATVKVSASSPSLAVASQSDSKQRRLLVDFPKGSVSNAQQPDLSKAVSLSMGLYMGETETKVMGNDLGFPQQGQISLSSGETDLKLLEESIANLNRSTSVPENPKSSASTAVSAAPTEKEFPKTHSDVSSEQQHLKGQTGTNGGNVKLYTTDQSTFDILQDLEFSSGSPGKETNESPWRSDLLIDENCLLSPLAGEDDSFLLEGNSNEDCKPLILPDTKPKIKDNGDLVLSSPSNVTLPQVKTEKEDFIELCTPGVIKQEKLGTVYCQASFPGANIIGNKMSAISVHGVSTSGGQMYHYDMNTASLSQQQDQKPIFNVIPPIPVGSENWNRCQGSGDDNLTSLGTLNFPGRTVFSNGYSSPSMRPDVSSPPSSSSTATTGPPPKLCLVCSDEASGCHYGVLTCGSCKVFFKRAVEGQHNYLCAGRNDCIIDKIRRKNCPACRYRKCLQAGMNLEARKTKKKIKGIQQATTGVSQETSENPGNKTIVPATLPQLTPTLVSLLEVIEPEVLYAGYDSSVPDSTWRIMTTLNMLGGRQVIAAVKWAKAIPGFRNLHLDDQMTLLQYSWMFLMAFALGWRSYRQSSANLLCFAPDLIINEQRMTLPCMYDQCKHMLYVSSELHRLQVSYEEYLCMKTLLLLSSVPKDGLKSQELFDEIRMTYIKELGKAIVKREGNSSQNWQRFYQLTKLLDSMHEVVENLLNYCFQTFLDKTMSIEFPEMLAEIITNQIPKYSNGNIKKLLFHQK
Protocol: as §1, §2, §3

E47 = target: T3, E47 (Homo sapiens, UniProt P15923); test: Effect on the transcriptional activity of E47
T3 sequence (P15923 1-651 isoform P15923-2): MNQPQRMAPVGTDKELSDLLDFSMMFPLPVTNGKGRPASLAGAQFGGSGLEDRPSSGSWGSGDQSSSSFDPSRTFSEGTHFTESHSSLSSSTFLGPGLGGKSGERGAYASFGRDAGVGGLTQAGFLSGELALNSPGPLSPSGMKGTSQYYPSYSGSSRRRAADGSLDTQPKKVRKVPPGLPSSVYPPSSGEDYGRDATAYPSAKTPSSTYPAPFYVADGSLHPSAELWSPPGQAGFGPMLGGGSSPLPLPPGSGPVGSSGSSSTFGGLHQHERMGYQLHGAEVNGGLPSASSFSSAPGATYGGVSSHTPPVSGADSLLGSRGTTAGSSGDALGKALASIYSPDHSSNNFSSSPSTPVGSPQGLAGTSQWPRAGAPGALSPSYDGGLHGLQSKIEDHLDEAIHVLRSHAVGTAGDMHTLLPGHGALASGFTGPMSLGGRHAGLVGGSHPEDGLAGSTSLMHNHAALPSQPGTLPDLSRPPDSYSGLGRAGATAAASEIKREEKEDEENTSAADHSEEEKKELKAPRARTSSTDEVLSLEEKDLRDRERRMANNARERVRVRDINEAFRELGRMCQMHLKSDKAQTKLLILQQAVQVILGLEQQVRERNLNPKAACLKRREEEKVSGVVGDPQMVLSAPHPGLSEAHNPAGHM

CREB = test: CAT reporter assay CREB/CRE-tk-CAT in HeLa cells, with and without forskolin; conditions: without and with 1 μM forskolin
Protocol: as §2
The CAT activity of the reporter was determined.

B1: steroid receptor coactivator-one (SRC-1), full-length (protein)
chain: MSIPRVNPSVNPSISPAHGVARSSTLPPSNSNMVSTRINRQQSSDLHSSSHSNSSNSQGSFGCSPGSQIVANVALNKGQASSQSSKPSLNLNNPPMEGTGISLAQFMSPRRQVTSGLATRPRMPNNSFPPNISTLSSPVGMTSSACNNNNRSYSNIPVTSLQGMNEGPNNSVGFSASSPVLRQMSSQNSPSRLNIQPAKAESKDNKEIASTLNEMIQSDNSSSDGKPLDSGLLHNNDRLSDGDSKYSQTSHKLVQLLTTTAEQQLRHADIDTSCKDVLSCTGTSNSASANSSGGSCPSSHSSLTARHKILHRLLQEGSPSDITTLSVEPDKKDSASTSVSVTGQVQGNSSIKLELDASKKKESKDHQLLRYLLDKDEKDLRSTPNLSLDDVKVKVEKKEQMDPCNTNPTPMTKATPEEIKLEAQSQFTADLDQFDQLLPTLEKAAQLPGLCETDRMDGAVTSVTIKSEILPASLQSATARPTSRLNRLPELELEAIDNQFGQPGTGDQIPWTNNTVTAINQSKSEDQCISSQLDELLCPPTTVEGRNDEKALLEQLVSFLSGKDETELAELDRALGIDKLVQGGGLDVLSERFPPQQATPPLIMEERPNLYSQPYSSPFPTANLPSPFQGMVRQKPSLGTMPVQVTPPRGAFSPGMGMQPRQTLNRPPAAPNQLRLQLQQRLQGQQQLIHQNRQAILNQFAATAPVGINMRSGMQQQITPQPPLNAQMLAQRQRELYSQQHRQRQLIQQQRAMLMRQQSFGNNLPPSSGLPVQTGNPRLPQGAPQQFPYPPNYGTNPGTPPASTSPFSQLAANPEASLANRNSMVSRGMTGNIGGQFGTGINPQMQQNVFQYPGAGMVPQGEANFAPSLSPGSSMVPMPIPPPQSSLLQQTPPASGYQSPDMKAWQQGAIGNNNVFSQAVQNQPTPAQPGVYNNMSITVSMAGGNTNVQNMNPMMAQMQMSSLQMPGMNTVCPEQINDPALRHTGLYCNQLSSTDLLKTEADGTQQVQQVQVFADVQCTVNLVGGDPYLNQPGPLGTQKPTSGPQTPQAQQKSLLQQLLTE
- effect on RXR transcriptional activity (RXR): enhance
- effect on GR transcriptional activity (GR): enhance
- effect on E47 transcriptional activity (E47): did not alter
- effect on basal and forskolin-stimulated transcriptional activities of CREB (CREB): did not affect
